This is an account of results in paper PMC8732845, “Novel interaction between neurotrophic factor-α1/carboxypeptidase E and serotonin receptor, 5-HTR1E, protects human neurons against oxidative/neuroexcitotoxic stress via β-arrestin/ERK signaling” (Cellular and Molecular Life Sciences: CMLS, 2021).

The target in this test is 5-hydroxytryptamine receptor 1-E (5-HTR1E) on stably transfected HEK293 cells (human, UniProt P28566 1-365). Briefly: cell-based or functional assay.
Chain of 5-hydroxytryptamine receptor 1-E (5-HTR1E) on stably transfected HEK293 cells (P28566 whole entry): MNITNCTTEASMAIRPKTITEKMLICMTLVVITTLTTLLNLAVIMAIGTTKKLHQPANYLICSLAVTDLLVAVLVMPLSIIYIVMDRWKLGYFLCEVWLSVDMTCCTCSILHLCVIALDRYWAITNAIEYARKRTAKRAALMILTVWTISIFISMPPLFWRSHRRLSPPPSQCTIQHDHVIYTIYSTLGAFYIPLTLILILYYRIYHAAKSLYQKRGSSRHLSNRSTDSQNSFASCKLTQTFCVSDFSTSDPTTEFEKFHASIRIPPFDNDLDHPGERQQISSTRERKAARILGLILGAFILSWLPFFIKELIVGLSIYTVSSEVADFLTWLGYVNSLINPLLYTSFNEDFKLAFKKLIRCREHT

B1: Recombinant mouse NF-α1/CPE (neurotrophic factor-α1/carboxypeptidase E), unlabeled (ligand)
chain: not shown
As for B1, the “CREB phosphorylation (Western blot, pCREB/tCREB) in 5-HTR1E stable cells, 50 nM NF-α1/CPE, 10–60 min (value after 20 min); not in control HEK293 cells” value worked out at 1.3 fold and the “phosphorylation of ERK 1/2 (Western blot, pERK/tERK) in 5-HTR1E stable HEK293 cells, 0–50 nM NF-α1/CPE for 5–15 min; not in control HEK293 cells” value is 3.4 fold.
